Test results: publication PMC4199230

Biological target: 6X-His-PTPROt-CS/DA
Assay: pull-down

percent reduction of binding against WT VCP	Substance
50%	HA-tagged VCP Y796F (from UniProt P55072 1-806) (natural protein)
> 90%	HA-tagged VCP Y796F/Y805F (from UniProt P55072 1-806) (natural protein)
> 90%	HA-tagged VCP Y805F (from UniProt P55072 1-806) (natural protein)
